# The supplement of paper PMC11246515
# ± gives the standard deviation of the averaged measurements.
# Test: total protein half-life in vivo (active degradation + dilution); higher = more stable protein
# [1] = E. coli NCM3722 delta-clpP delta-lon delta-hslV, growth: N-lim chemostat, doubling time 6 h
# [2] = E. coli NCM3722 delta-clpP, growth: N-lim chemostat, doubling time 6 h
# [3] = E. coli NCM3722 delta-hslV, growth: N-lim chemostat, doubling time 6 h
# [4] = E. coli NCM3722 delta-lon, growth: N-lim chemostat, doubling time 6 h
# [5] = E. coli NCM3722 delta-smpB, growth: N-lim chemostat, doubling time 6 h
# [6] = wild type E. coli NCM3722, growth: C-lim chemostat, doubling time 3 h
# [7] = wild type E. coli NCM3722, growth: C-lim chemostat, doubling time 6 h
# [8] = wild type E. coli NCM3722, growth: C-lim chemostat, doubling time 12 h
# [9] = wild type E. coli NCM3722, growth: N-lim chemostat, doubling time 6 h
# [10] = wild type E. coli NCM3722, growth: N-lim chemostat, doubling time 12 h
# [11] = wild type E. coli NCM3722, growth: P-lim chemostat, doubling time 12 h
# [12] = wild type E. coli NCM3722, growth: P-lim chemostat, doubling time 6 h
Sequence,total protein half-life in vivo [1],total protein half-life in vivo [2],total protein half-life in vivo [3],total protein half-life in vivo [4],total protein half-life in vivo [5],total protein half-life in vivo [6],total protein half-life in vivo [7],total protein half-life in vivo [8],total protein half-life in vivo [9],total protein half-life in vivo [10],total protein half-life in vivo [11],total protein half-life in vivo [12]
MRHIFQRLLPRRLWLAGLPCLALLGCVQNHNKPAIDTPAEEKIPVYQLADYLSTECSDIWALQGKSTETNPLYWLRAMDCADRLMPAQSRQQARQYDDGSWQNTFKQGILLADAKITPYERRQLVARIEALSTEIPAQVRPLYQLWRDGQALQLQLAEERQRYSKLQQSSDSELDTLRQQHHVLQQQLELTTRKLENLTDIERQLSTRKPAGNFSPDTPHESEKPAPSTHEVTPDEP [P0AD44],6.11 ± 0.099 h,6.44 ± 0.17 h,6.18 ± 0.37 h,6.9 ± 0.22 h,6.12 ± 0.2 h,3.34 ± 0.092 h,6.14 ± 0.27 h,13.1 ± 0.57 h,6.28 ± 1 h,14 ± 1.2 h,12.2 ± 3.1 h,
MRHSVLFATAFATLISTQTFAADLPGKGITVNPVQSTITEETFQTLLVSRALEKLGYTVNKPSEVDYNVGYTSLASGDATFTAVNWTPLHDNMYEAAGGDKKFYREGVFVNGAAQGYLIDKKTADQYKITNIAQLKDPKIAKLFDTNGDGKADLTGCNPGWGCEGAINHQLAAYELTNTVTHNQGNYAAMMADTISRYKEGKPVFYYTWTPYWVSNELKPGKDVVWLQVPFSALPGDKNADTKLPNGANYGFPVSTMHIVANKAWAEKNPAAAKLFAIMQLPVADINAQNAIMHDGKASEGDIQGHVDGWIKAHQQQFDGWVNEALAAQK [P0AFM2],,4.96 ± 0.067 h,6.88 ± 1.4 h,5.41 h,5.41 ± 0.17 h,3.5 ± 0.29 h,6.36 h,5.21 h,,11.2 h,13.1 h,6.38 h
MRIEEDLKLGFKDVLIRPKRSTLKSRSDVELERQFTFKHSGQSWSGVPIIAANMDTVGTFSMASALASFDILTAVHKHYSVEEWQAFINNSSADVLKHVMVSTGTSDADFEKTKQILDLNPALNFVCIDVANGYSEHFVQFVAKAREAWPTKTICAGNVVTGEMCEELILSGADIVKVGIGPGSVCTTRVKTGVGYPQLSAVIECADAAHGLGGMIVSDGGCTTPGDVAKAFGGGADFVMLGGMLAGHEESGGRIVEENGEKFMLFYGMSSESAMKRHVGGVAEYRAAEGKTVKLPLRGPVENTARDILGGLRSACTYVGASRLKELTKRTTFIRVQEQENRIFNNL,6.23 ± 0.89 h,4.46 ± 0.16 h,4.34 ± 0.1 h,5.46 ± 0.17 h,4.22 ± 0.21 h,2.77 ± 0.19 h,6.13 ± 0.25 h,9.9351 ± 0.0054 h,4.71 ± 0.14 h,7.56 ± 0.75 h,11 ± 0.55 h,6.2 ± 0.3 h
MRIFVYGSLRHKQGNSHWMTNAQLLGDFSIDNYQLYSLGHYPGAVPGNGTVHGEVYRIDNATLAELDALRTRGGEYARQLIQTPYGSAWMYVYQRPVDGLKLIESGDWLDRDK [P0AE48],5.12 ± 0.42 h,4.63 ± 0.19 h,4.95 ± 0.15 h,5.345 ± 0.014 h,5 ± 0.3 h,2.57 ± 0.21 h,5.316 ± 0.012 h,8.87 ± 0.3 h,4.49 ± 0.61 h,7.76 ± 0.7 h,11.5 ± 1.6 h,5.27 ± 0.36 h
MRIVTAAVMASTLAVSSLSHAAEVGSGDNWHPGEELTQRSTQSHMFDGISLTEHQRQQMRDLMQQARHEQPPVNVSELETMHRLVTAENFDENAVRAQAEKMANEQIARQVEMAKVRNQMYRLLTPEQQAVLNEKHQQRMEQLRDVTQWQKSSSLKLLSSSNSRSQ [P0AE85],2.56 ± 0.11 h,4.81 h,1.65 h,> 8 h,2.394 ± 0.017 h,,2.391 ± 0.0025 h,,,3.54 ± 0.086 h,2.99 h,
MRKFTLNIFTLSLGLAVMPMVEAAPTAQQQLLEQVRLGEATHREDLVQQSLYRLELIDPNNPDVVAARFRSLLRQGDIDGAQKQLDRLSQLAPSSNAYKSSRTTMLLSTPDGRQALQQARLQATTGHAEEAVASYNKLFNGAPPEGDIAVEYWSTVAKIPARRGEAINQLKRINADAPGNTGLQNNLALLLFSSDRRDEGFAVLEQMAKSNAGREGASKIWYGQIKDMPVSDASVSALKKYLSIFSDGDSVAAAQSQLAEQQKQLADPAFRARAQGLAAVDSGMAGKAIPELQQAVRANPKDSEALGALGQAYSQKGDRANAVANLEKALALDPHSSNNDKWNSLLKVNRYWLAIQQGDAALKANNPDRAERLFQQARNVDNTDSYAVLGLGDVAMARKDYPAAERYYQQTLRMDSGNTNAVRGLANIYRQQSPEKAEAFIASLSASQRRSIDDIERSLQNDRLAQQAEALENQGKWAQAAALQRQRLALDPGSVWITYRLSQDLWQAGQRSQADTLMRNLAQQKSNDPEQVYAYGLYLSGHDQDRAALAHINSLPRAQWNSNIQELVNRLQSDQVLETANRLRESGKEAEAEAMLRQQPPSTRIDLTLADWAQQRRDYTAARAAYQNVLTREPANADAILGLTEVDIAAGDKAAARSQLAKLPATDNASLNTQRRVALAQAQLGDTAAAQRTFNKLIPQAKSQPPSMESAMVLRDGAKFEAQAGDPTQALETYKDAMVASGVTTTRPQDNDTFTRLTRNDEKDDWLKRGVRSDAADLYRQQDLNVTLEHDYWGSSGTGGYSDLKAHTTMLQVDAPYSDGRMFFRSDFVNMNVGSFSTNADGKWDDNWGTCTLQDCSGNRSQSDSGASVAVGWRNDVWSWDIGTTPMGFNVVDVVGGISYSDDIGPLGYTVNAHRRPISSSLLAFGGQKDSPSNTGKKWGGVRADGVGLSLSYDKGEANGVWASLSGDQLTGKNVEDNWRVRWMTGYYYKVINQNNRRVTIGLNNMIWHYDKDLSGYSLGQGGYYSPQEYLSFAIPVMWRERTENWSWELGASGSWSHSRTKTMPRYPLMNLIPTDWQEEAARQSNDGGSSQGFGYTARALLERRVTSNWFVGTAIDIQQAKDYAPSHFLLYVRYSAAGWQGDMDLPPQPLIPYADW,6.16 ± 0.12 h,6.7 ± 0.36 h,6.74 ± 0.87 h,6.13 ± 0.61 h,5.66 ± 0.14 h,3.2 ± 0.16 h,6.39 ± 0.4 h,11.2 ± 1.1 h,6.4455 ± 0.00019 h,13.8 ± 0.91 h,13.3 ± 0.38 h,6.24 ± 0.29 h
